Laboratory results published in article PMC2853113.
Like-named read-outs stand apart in the source and are kept apart here.

How the values were obtained:
[1] = biological target: T1, YvoA wild-type (Bacillus subtilis, UniProt O34817 1-243); assay: ITC
T1 sequence: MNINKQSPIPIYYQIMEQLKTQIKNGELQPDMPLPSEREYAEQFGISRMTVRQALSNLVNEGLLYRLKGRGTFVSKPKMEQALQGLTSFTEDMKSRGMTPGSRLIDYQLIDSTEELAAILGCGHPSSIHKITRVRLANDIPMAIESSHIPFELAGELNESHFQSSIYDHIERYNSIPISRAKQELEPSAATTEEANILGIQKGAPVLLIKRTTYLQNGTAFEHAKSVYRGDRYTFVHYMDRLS

[2] = biological target: T2, YvoA-E61C-L242C (Bacillus subtilis, UniProt O34817 1-243, E61C;L242C); assay: analytical gel filtration
T2 sequence: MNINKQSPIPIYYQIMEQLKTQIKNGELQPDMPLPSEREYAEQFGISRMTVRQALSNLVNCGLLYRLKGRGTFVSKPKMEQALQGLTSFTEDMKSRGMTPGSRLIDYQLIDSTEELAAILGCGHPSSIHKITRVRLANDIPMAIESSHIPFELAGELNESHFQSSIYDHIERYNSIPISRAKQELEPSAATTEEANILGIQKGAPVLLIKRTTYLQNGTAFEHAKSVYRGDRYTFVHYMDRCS

[3] = biological target: T1, YvoA wild-type; assay: ITC; remark: listed apart in the source
[4] = biological target: T3, YvoA-K24C-G97C (Bacillus subtilis, UniProt O34817 1-243, K24C;G97C); assay: analytical gel filtration
T3 sequence: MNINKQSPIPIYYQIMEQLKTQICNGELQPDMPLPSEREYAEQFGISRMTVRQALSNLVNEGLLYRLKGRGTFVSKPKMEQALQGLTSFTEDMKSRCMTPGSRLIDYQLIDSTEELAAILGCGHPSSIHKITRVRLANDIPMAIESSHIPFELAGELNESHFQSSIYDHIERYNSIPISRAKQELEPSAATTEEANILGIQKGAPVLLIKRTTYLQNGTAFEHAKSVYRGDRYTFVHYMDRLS

B1: YvoA operator dsDNA (18mer) (dsDNA)
DNA 1: ATTGGTATAGATCACTAG
DNA 2: CTAGTGATCTATACCAAT
**Q.** For B1, which Kd [1] is on record?
**A.** The Kd was 131 nM.

**Q.** Does B1 bind [2]?
**A.** Result: binds

**Q.** And the Kd [3]?
**A.** The Kd was 2.9 nM.

**Q.** Does B1 bind [4]?
**A.** Result: binds
